# Assay results from patent US20210179706A1.
# Where “and” joins values, the source holds several entries; their conditions need not be identical. Equal values may be shown once. Read-outs that look alike come from different tables or passages of the source.
# Columns and labels:
# human IL-1β-hFc (human) [1] = target: human IL-1β-hFc (human) (UniProt P01584); assay: competition ELISA on coated IL-1β-hFc, competitor IL-1R1(1-332)-his; 4-parameter fit
# [2] = target: human IL-1β-His-Bio (human) (UniProt P01584); assay: ELISA, IL-1β-His-Bio captured on streptavidin; antibody 0.333 µg/mL
# human IL-1β-hFc (human) [3] = target: human IL-1β-hFc (human) (UniProt P01584); assay: competition ELISA on coated IL-1β-hFc, competitor IL-1R1(1-332)-his; 4-parameter fit; remark: listed apart in the source
# [4] = target: human IL-1β-His-Bio (human) (UniProt P01584); assay: ELISA, IL-1β-His-Bio captured on streptavidin; 4-parameter fit
# [5] = target: human IL-1β-His-Bio (human) (UniProt P01584); assay: ELISA, IL-1β-His-Bio captured on streptavidin; antibody 0.037 µg/mL
# [6] = target: human IL-1β-His-Bio (human) (UniProt P01584); assay: ELISA, IL-1β-His-Bio captured on streptavidin; antibody 0.004 µg/mL
# human IL-1β-hFc (human) [7] = target: human IL-1β-hFc (human) (UniProt P01584); assay: competition ELISA on coated IL-1β-hFc, competitor IL-1R1(1-332)-his (anti-His-HRP read-out); antibody 0.111 µg/mL
# [8] = target: human IL-1β-His-Bio (human) (UniProt P01584); assay: ELISA, IL-1β-His-Bio captured on streptavidin; antibody 0.333 µg/mL diluted 1:729
# [9] = target: human IL-1β-His-Bio (human) (UniProt P01584); assay: ELISA, IL-1β-His-Bio captured on streptavidin; antibody 0.333 µg/mL diluted 1:27
# [10] = target: human IL-1β-His-Bio (human) (UniProt P01584); assay: ELISA, IL-1β-His-Bio captured on streptavidin; antibody 1 µg/mL
# [11] = target: human IL-1β-His-Bio (human) (UniProt P01584); assay: ELISA, IL-1β-His-Bio captured on streptavidin; antibody 0.333 µg/mL diluted 1:3
# [12] = target: human IL-1β-His-Bio (human) (UniProt P01584); assay: ELISA, IL-1β-His-Bio captured on streptavidin; antibody 0.012 µg/mL
# human IL-1β-hFc (human) [13] = target: human IL-1β-hFc (human) (UniProt P01584); assay: competition ELISA on coated IL-1β-hFc, competitor IL-1R1(1-332)-his (anti-His-HRP read-out); antibody 0.001 µg/mL
# human IL-1β-hFc (human) [14] = target: human IL-1β-hFc (human) (UniProt P01584); assay: competition ELISA on coated IL-1β-hFc, competitor IL-1R1(1-332)-his (anti-His-HRP read-out); antibody 0.037 µg/mL
# human IL-1β-hFc (human) [15] = target: human IL-1β-hFc (human) (UniProt P01584); assay: competition ELISA on coated IL-1β-hFc, competitor IL-1R1(1-332)-his (anti-His-HRP read-out); antibody 0.012 µg/mL
# human IL-1β-his (human) = human IL-1β-his (human) (UniProt P01584); assay: SPR (Biacore), antibody amine-coupled on CM5, IL-1β 1.56-25 nM as analyte
# human IL-1β-hFc (human) [16] = target: human IL-1β-hFc (human) (UniProt P01584); assay: competition ELISA on coated IL-1β-hFc, competitor IL-1R1(1-332)-his (anti-His-HRP read-out); antibody 1.000 µg/mL
# human IL-1β-hFc (human) [17] = target: human IL-1β-hFc (human) (UniProt P01584); assay: competition ELISA on coated IL-1β-hFc, competitor IL-1R1(1-332)-his (anti-His-HRP read-out); antibody 0.111 µg/mL; remark: listed apart in the source
# human IL-1β-hFc (human) [18] = target: human IL-1β-hFc (human) (UniProt P01584); assay: competition ELISA on coated IL-1β-hFc, competitor IL-1R1(1-332)-his (anti-His-HRP read-out); antibody 0.333 µg/mL
# human IL-1β-hFc (human) [19] = target: human IL-1β-hFc (human) (UniProt P01584); assay: competition ELISA on coated IL-1β-hFc, competitor IL-1R1(1-332)-his (anti-His-HRP read-out); antibody 1.000 µg/mL; remark: listed apart in the source
# human IL-1β-hFc (human) [20] = target: human IL-1β-hFc (human) (UniProt P01584); assay: competition ELISA on coated IL-1β-hFc, competitor IL-1R1(1-332)-his (anti-His-HRP read-out); antibody 0.012 µg/mL; remark: listed apart in the source
# human IL-1β-hFc (human) [21] = target: human IL-1β-hFc (human) (UniProt P01584); assay: competition ELISA on coated IL-1β-hFc, competitor IL-1R1(1-332)-his (anti-His-HRP read-out); antibody 0.333 µg/mL; remark: listed apart in the source
# [22] = target: human IL-1β-His-Bio (human) (UniProt P01584); assay: ELISA, IL-1β-His-Bio captured on streptavidin; antibody 0.333 µg/mL diluted 1:9
# human IL-1β-hFc (human) [23] = target: human IL-1β-hFc (human) (UniProt P01584); assay: competition ELISA on coated IL-1β-hFc, competitor IL-1R1(1-332)-his (anti-His-HRP read-out); antibody 0.004 µg/mL
# human IL-1β-hFc (human) [24] = target: human IL-1β-hFc (human) (UniProt P01584); assay: as above; remark: listed apart in the source
# [25] = target: human IL-1β-His-Bio (human) (UniProt P01584); assay: ELISA, IL-1β-His-Bio captured on streptavidin; antibody 0.111 µg/mL
# [26] = target: human IL-1β-His-Bio (human) (UniProt P01584); assay: ELISA, IL-1β-His-Bio captured on streptavidin; antibody 0.333 µg/mL diluted 1:243
# human IL-1β-hFc (human) [27] = target: human IL-1β-hFc (human) (UniProt P01584); assay: competition ELISA on coated IL-1β-hFc, competitor IL-1R1(1-332)-his (anti-His-HRP read-out); antibody 0.001 µg/mL; remark: listed apart in the source
# [28] = target: human IL-1β-His-Bio (human) (UniProt P01584); assay: ELISA, IL-1β-His-Bio captured on streptavidin; antibody 0.001 µg/mL
# [29] = target: human IL-1β-His-Bio (human) (UniProt P01584); assay: ELISA, IL-1β-His-Bio captured on streptavidin; antibody 0.333 µg/mL; remark: listed apart in the source
# human IL-1β-hFc (human) [30] = target: human IL-1β-hFc (human) (UniProt P01584); assay: competition ELISA on coated IL-1β-hFc, competitor IL-1R1(1-332)-his (anti-His-HRP read-out); antibody 0.037 µg/mL; remark: listed apart in the source
# [31] = target: human IL-1β-His-Bio (human) (UniProt P01584); assay: ELISA, IL-1β-His-Bio captured on streptavidin; 4-parameter fit; remark: listed apart in the source
# [32] = target: human IL-1β-His-Bio (human) (UniProt P01584); assay: ELISA, IL-1β-His-Bio captured on streptavidin; antibody 0.333 µg/mL diluted 1:81
substance,measurement,setting,value
canakinumab (trade name Ilaris) (antibody),EC50,human IL-1β-hFc (human) [1],0.961 nM
same,OD (450 nm),[2],2.9 OD450 and 2.88 OD450
same,EC50,human IL-1β-hFc (human) [3],0.26 nM
same,EC50,[4],0.057 nM
same,OD (450 nm),[5],2.64 OD450 and 2.68 OD450
same,OD (450 nm),[6],1.26 OD450 and 1.2 OD450
same,OD (450 nm) of blocking assay,human IL-1β-hFc (human) [7],0.519 OD450 and 0.526 OD450
same,OD (450 nm),[8],0.315 OD450
same,OD (450 nm),[9],1.7 OD450 and 1.96 OD450
same,OD (450 nm),[10],2.87 OD450
same,OD (450 nm),[11],2.68 OD450 and 2.88 OD450
same,OD (450 nm),[12],2.06 OD450 and 2.12 OD450
same,OD (450 nm) of blocking assay,human IL-1β-hFc (human) [13],0.577 OD450 and 0.72 OD450
same,OD (450 nm) of blocking assay,human IL-1β-hFc (human) [14],0.366 OD450 and 0.379 OD450
same,OD (450 nm) of blocking assay,human IL-1β-hFc (human) [15],0.572 OD450 and 0.579 OD450
same,Kd,human IL-1β-his (human),0.0979 nM
same,OD (450 nm) of blocking assay,human IL-1β-hFc (human) [16],0.053 OD450 and 0.052 OD450
same,OD (450 nm) of blocking assay,human IL-1β-hFc (human) [17],0.091 OD450 and 0.092 OD450
same,OD (450 nm) of blocking assay,human IL-1β-hFc (human) [18],0.059 OD450 and 0.057 OD450
same,OD (450 nm) of blocking assay,human IL-1β-hFc (human) [19],0.093 OD450 and 0.088 OD450
same,OD (450 nm) of blocking assay,human IL-1β-hFc (human) [20],0.797 OD450 and 0.706 OD450
same,OD (450 nm) of blocking assay,human IL-1β-hFc (human) [21],0.104 OD450 and 0.126 OD450
same,OD (450 nm),[22],2.46 OD450 and 2.61 OD450
same,OD (450 nm) of blocking assay,human IL-1β-hFc (human) [23],0.727 OD450 and 0.684 OD450
same,OD (450 nm) of blocking assay,human IL-1β-hFc (human) [24],0.765 OD450 and 0.735 OD450
same,OD (450 nm),[25],2.9 OD450 and 2.89 OD450
same,OD (450 nm),[26],0.408 OD450 and 0.573 OD450
same,OD (450 nm) of blocking assay,human IL-1β-hFc (human) [27],0.738 OD450 and 0.559 OD450
same,OD (450 nm),[28],0.581 OD450 and 0.559 OD450
same,OD (450 nm),[29],2.81 OD450 and 2.94 OD450
same,OD (450 nm) of blocking assay,human IL-1β-hFc (human) [30],0.736 OD450 and 0.705 OD450
same,EC50,[31],0.039 nM
same,OD (450 nm),[32],0.852 OD450 and 1.11 OD450
